The values below come from publication PMC5757785.

This assay has as its target FlAsH-tagged Lys6-linked diubiquitin (UniProt P0CG47). The assay is described as follows: fluorescence polarisation. A general note: Fluorescence polarisation rises when a labelled molecule tumbles more slowly, as on binding a larger partner.

pKd: −log10 of the molar value.

As for “USP30^c13i (inactive USP30 construct 13, C77A) (from UniProt Q70CQ3 1-517) (enzyme)”, the pKd is 5.40.

A word on the pKd: it is the negative decadic logarithm of the Kd, by convention in mol/L.
